{
  "source": "paper PMC2638020",
  "about": "“Large-Scale Structural Analysis of the Classical Human Protein Tyrosine Phosphatome” (Cell, 2009)",
  "molecular_target": "the molecule itself",
  "experiment": "AUC; sedimentation equilibrium; 0.2, 0.4 and 0.8 mg/ml, 7500 and 10,000 rpm; global fit with a self-association model; dimer to monomers",
  "data": [
    {"protein": "RPTPγ tandem phosphatase domains (D1-D2), wild type (domain or fragment, RPTPγ (PTPRG), human, tandem catalytic domains D1-D2; PDB 2NLK); Vector, tag state and construct limits are in the Supplemental Data; also called PTPRG; RPTPγ D1-D2; source: E. coli BL21(DE3), purified) not shown", "values": [
      {"measurement": "Kd", "result": "3.5 ± 0.3", "unit": "µM"},
      {"measurement": "stoichiometry N", "result": 2}
    ]}
  ]
}
